According to patent US20220025022A1 (published 2022):

Legend:
[1] = molecular target: T1, CFA/I fimbrial protein (with adhesin subunit CfaE) on ETEC strain H10407 (enterotoxigenic Escherichia coli (ETEC), UniProt P25734 1-360); experiment: cell-based or functional assay
T1 sequence (looked up): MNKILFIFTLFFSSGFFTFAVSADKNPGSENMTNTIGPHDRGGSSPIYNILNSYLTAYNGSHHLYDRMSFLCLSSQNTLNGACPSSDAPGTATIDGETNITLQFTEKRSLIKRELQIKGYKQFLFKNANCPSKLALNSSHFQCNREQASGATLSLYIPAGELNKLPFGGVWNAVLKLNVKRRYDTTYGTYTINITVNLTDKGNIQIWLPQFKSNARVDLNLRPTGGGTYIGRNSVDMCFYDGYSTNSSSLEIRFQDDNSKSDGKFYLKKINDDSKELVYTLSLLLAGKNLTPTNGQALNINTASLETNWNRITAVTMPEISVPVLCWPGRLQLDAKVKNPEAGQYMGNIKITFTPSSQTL

CS4 on ETEC strain = CS4 on ETEC strain (enterotoxigenic Escherichia coli (ETEC)); experiment: cell-based or functional assay
[2] = molecular target: CS14 on ETEC strain #400599 (enterotoxigenic Escherichia coli (ETEC)); experiment: cell-based or functional assay
[3] = molecular target: CS1 on ETEC strain #200145 (enterotoxigenic Escherichia coli (ETEC)); experiment: cell-based or functional assay
CS17 on ETEC strain = CS17 on ETEC strain (enterotoxigenic Escherichia coli (ETEC)); experiment: cell-based or functional assay
[4] = molecular target: CS19 on ETEC strain #204648 (enterotoxigenic Escherichia coli (ETEC)); experiment: cell-based or functional assay
[5] = molecular target: CS2 on ETEC strain #201546 (enterotoxigenic Escherichia coli (ETEC)); experiment: cell-based or functional assay
[6] = molecular target: CS3 on ETEC strain #100483 (enterotoxigenic Escherichia coli (ETEC)); experiment: cell-based or functional assay
[7] = molecular target: CS5 on ETEC strain #204348 (enterotoxigenic Escherichia coli (ETEC)); experiment: cell-based or functional assay
[8] = molecular target: CS6 on ETEC strain #100001 (enterotoxigenic Escherichia coli (ETEC)); experiment: cell-based or functional assay
[9] = molecular target: CS21 on ETEC strain #100171 (enterotoxigenic Escherichia coli (ETEC)); experiment: cell-based or functional assay
[10] = molecular target: T2, recombinant CS2 (N-terminal adhesin domain of CotD, MBP-tagged) (enterotoxigenic Escherichia coli (ETEC)); experiment: ELISA on coated recombinant antigen
T2 construct: also called CotD, CS2; colonization factor antigen CS2
T2 chain: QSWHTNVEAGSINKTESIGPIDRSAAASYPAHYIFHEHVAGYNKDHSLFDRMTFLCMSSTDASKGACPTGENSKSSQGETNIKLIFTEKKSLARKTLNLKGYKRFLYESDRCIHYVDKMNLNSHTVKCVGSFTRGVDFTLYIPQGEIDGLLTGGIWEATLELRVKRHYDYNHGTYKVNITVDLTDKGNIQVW

[11] = molecular target: T3, MBP-CfaE-N (recombinant N-terminal adhesin domain of CfaE fused to an MBP tag) (enterotoxigenic Escherichia coli (ETEC), UniProt P25734 24-205, Biotinylated for SPR; FITC or Alexa dye labelled for flow cytometry; sites not stated.); experiment: SPR (Biacore T200), CfaE on CM5 chip, VHH injected, 25 C, 1:1 model
T3 construct: Used plain (ELISA), biotinylated (SPR) and FITC/Alexa-labelled (flow cytometry); GenBank M55661 is printed for the nucleic acid; also called recombinant N-terminal truncated CfaE protein; N-terminal CfaE protein
T3 sequence: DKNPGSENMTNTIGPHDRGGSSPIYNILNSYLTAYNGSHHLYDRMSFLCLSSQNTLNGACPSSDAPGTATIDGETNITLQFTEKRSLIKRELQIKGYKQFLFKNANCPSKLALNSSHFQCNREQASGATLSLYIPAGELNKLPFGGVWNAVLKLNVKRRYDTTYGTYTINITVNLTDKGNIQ

B1: VHH antibody 1D7 (monomeric) (VHH)
VHH: EVQLVESGGGLVQAGGSLTLSCAASERTFSYYVMAWFRQAPGKEREFVAGISMSGDSTKYADSVKGRFTISRDNAENTGYLQMNGLKPEDTAVYYCAADRDIRGNFRSWGRGTQVTVSS
notes: also called clone 1D7
- MRHA IC100 [1]: 100 µg/mL
- MRHA IC100 (CS4 on ETEC strain): 200 µg/mL
- MRHA IC100 [2]: 100 µg/mL
- MRHA IC100 [3]: 50 µg/mL
- MRHA IC100 (CS17 on ETEC strain): 6.25 µg/mL
- MRHA IC100 [4]: 100 µg/mL
- MRHA IC100 [5]: 50 µg/mL
- MRHA IC100 [6]: 50 µg/mL
- MRHA IC100 [7]: 3.12 µg/mL
- MRHA IC100 [8]: 12.5 µg/mL
- MRHA IC100 [9]: 25 µg/mL
- binding result [10]: no binding
- Kd [11]: 17.7 nM
- koff [11]: 0.0311 s⁻¹
- kon [11]: 1.75e+06 M⁻¹ s⁻¹

B2: VHH antibody 2R215 (monomeric) (VHH)
VHH: QVQLQESGGGLVQAGGSLRLSCAASGNIFQDAEMGWYRQAPGKEREFVATIAYGGNTNYADSVKGRFTISRDNAKNTVYLQMNSLKPEDTAVYYCAVYTGVYYDRTTGGYVAFEYWGQGTQVTVSS
- MRHA IC100 [1]: 25 µg/mL
- MRHA IC100 (CS4 on ETEC strain): 100 µg/mL
- MRHA IC100 [2]: 200 µg/mL
- MRHA IC100 [3]: 200 µg/mL
- MRHA IC100 (CS17 on ETEC strain): 6.25 µg/mL
- MRHA IC100 [4]: 200 µg/mL
- MRHA IC100 [5]: 6.25 µg/mL
- MRHA IC100 [6]: 100 µg/mL
- MRHA IC100 [7]: 6.25 µg/mL
- MRHA IC100 [8]: 25 µg/mL
- MRHA IC100 [9]: 25 µg/mL

B3: VHH antibody 2R23 (monomeric) (VHH)
VHH: QVQLQESGGGLVQAGGSLRLSCAASGYIFWSYGYMGWYRQAPGKERELVATISRGGTTNYADSVKGRFTISRDNAKNTVYLQMNSLKPEDTAVYYCAAGRYAFGYFKYWGQGTQVTVSS
notes: also called clone 2R23
- MRHA IC100 [1]: 50 µg/mL
- MRHA IC100 (CS4 on ETEC strain): 25 µg/mL
- MRHA IC100 [2]: 25 µg/mL
- MRHA IC100 [3]: 200 µg/mL
- MRHA IC100 (CS17 on ETEC strain): 6.25 µg/mL
- MRHA IC100 [4]: 200 µg/mL
- MRHA IC100 [5]: 200 µg/mL
- MRHA IC100 [6]: 100 µg/mL
- MRHA IC100 [7]: 12.5 µg/mL
- MRHA IC100 [8]: 12.5 µg/mL
- MRHA IC100 [9]: 25 µg/mL
- Kd [11]: 9.06 nM
- koff [11]: 64.6 s⁻¹
- kon [11]: 7.13e+09 M⁻¹ s⁻¹
